The results in this text go back to paper doi:10.1101/2025.06.23.660979.

In experiment [1] the target is VcLmuA, LmuA of the type II Lamassu system from Vibrio cholerae O1 El (Vibrio cholerae O1 El). The experiment can be described thus: cryo-EM structure.
Experiment [2] addresses BcLmuA K59A, nuclease-dead BcLmuA of the BcLmuA(K59A)B complex (Bacillus cellulasensis NIO-1130). As to the kind of experiment: cryo-EM structure.
Experiment [3] addresses VcLmuA, LmuA of the type II Lamassu system from Vibrio cholerae O1 El (Vibrio cholerae O1 El). As to the kind of experiment: SEC-MALS. (In general: In gel filtration, larger molecules generally elute earlier.)

In general, stoichiometry N refers to a count of units in the complex or per binding partner.

The substance “VcLmuA, LmuA of the type II Lamassu system from Vibrio cholerae O1 El (natural protein)” returned a stoichiometry N in experiment [1] of 4.
Take “BcLmuA K59A, nuclease-dead BcLmuA of the BcLmuA(K59A)B complex (natural protein)”: the stoichiometry N in experiment [2] was 4.
The substance “VcLmuC, LmuC of the type II Lamassu system from Vibrio cholerae O1 El (natural protein)” registered a stoichiometry N (LmuC per LmuA) in experiment [3] of 1. Further, the stoichiometry N (VcLmuC per VcLmuA) in experiment [1] turned out to be 1.
